Reference: article PMC5493677, “The role of the FliD C-terminal domain in pentamer formation and interaction with FliT” (Scientific Reports, 2017)

B1: StFliT_(1–94), C-terminus-truncated FliT from Salmonella Typhimurium (domain or fragment)
chain: MTSTVEFINRWQRIALLSQSLLELAQRGEWDLLLQQEVSYLQSIETVMEKQTPPGITRSIQDMVAGYIKQTLDNEQLLKGLLQQRLDELSSLIG
notes: FliT (flagellar export chaperone) of Salmonella Typhimurium, residues 1–94; At the glutathione-Sepharose step of the co-purification the GST tag was still on; it was cut by TEV protease before ion exchange and gel filtration; source: E. coli BL21(DE3); purified alone (glutathione-Sepharose, TEV cleavage, gel filtration) for ITC; co-expressed with StFliD constructs and co-purified for the …
B5: StFliD_(1–467), full-length FliD from Salmonella Typhimurium, wild type (natural protein)
chain: MASISSLGVGSNLPLDQLLTDLTKNEKGRLTPITKQQSANSAKLTAYGTLKSALEKFQTANTALNKADLFKSTVASSTTEDLKVSTTAGAAAGTYKINVTQLAAAQSLATKTTFATTKEQLGDTSVTSRTIKIEQPGRKEPLEIKLDKGDTSMEAIRDAINDADSGIAASIVKVKENEFQLVLTANSGTDNTMKITVEGDTKLNDLLAYDSTTNTGNMQELVKAENAKLNVNGIDIERQSNTVTDAPQGITLTLTKKVTDATVTVTKDDTKAKEAIKSWVDAYNSLVDTFSSLTKYTAVEPGEEASDKNGALLGDSVVRTIQTGIRAQFANSGSNSAFKTMAEIGITQDGTSGKLKIDDDKLTKVLKDNTAAARELLVGDGKETGITTKIATEVKSYLADDGIIDNAQDNVNATLKSLTKQYLSVSNSIDETVARYKAQFTQLDTMMSKLNNTSSYLTQQFTAMNKS
notes: FliD (HAP2, flagellar filament capping protein) of Salmonella Typhimurium, residues 1–467; also called StFliD WT; HAP2; source: E. coli BL21(DE3); co-expressed with StFliT 1–94 and co-purified (glutathione-Sepharose, TEV, Hitrap Q, Superdex 200) for the complex

How the values were obtained:
[1] = target: T1, StFliD_(1–467) L443R mutant (Salmonella Typhimurium, UniProt P16328 1-467, L443R); assay: ITC; 170 μM StFliT 1–94 injected (2.5 μL, every 200 s) into 26 μM StFliD in the cell; 298 K; buffer A (20 mM Tris-HCl pH 8.0, 200 mM NaCl); settings: both partners purified
T1 construct: FliD of Salmonella Typhimurium, residues 1–467, with L443R; Monomer by SEC-MALS; also called StFliD L443R; FliD (L443R)
T1 sequence: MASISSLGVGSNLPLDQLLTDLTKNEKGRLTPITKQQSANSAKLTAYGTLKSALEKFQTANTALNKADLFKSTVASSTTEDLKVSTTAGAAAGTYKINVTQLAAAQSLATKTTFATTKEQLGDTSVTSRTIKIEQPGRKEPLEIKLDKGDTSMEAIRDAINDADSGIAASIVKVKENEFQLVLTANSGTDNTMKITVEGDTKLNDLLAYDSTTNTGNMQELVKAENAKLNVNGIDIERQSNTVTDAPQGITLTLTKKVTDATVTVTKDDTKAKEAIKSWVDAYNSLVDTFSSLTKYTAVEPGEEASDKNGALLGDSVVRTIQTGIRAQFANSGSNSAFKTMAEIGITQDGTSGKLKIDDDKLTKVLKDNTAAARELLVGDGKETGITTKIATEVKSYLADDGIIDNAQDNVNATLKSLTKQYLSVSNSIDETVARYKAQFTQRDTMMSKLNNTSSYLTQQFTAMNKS

[2] = target: B5; assay: as above; settings: both partners purified
[3] = target: the molecule itself; assay: SAXS; purified proteins and co-purified complexes, 1.0–10.0 mg/mL, 4 °C; ab initio envelopes (DAMMIF)
[4] = target: the molecule itself; assay: SEC-MALS; samples at 100 μM (Fig. 2c); Superdex 200 10/300 GL in buffer A (20 mM Tris-HCl pH 8.0, 200 mM NaCl), 0.4 mL/min
[5] = target: B1; assay: SEC-MALS; co-purified complexes (Fig. 1b), concentration not given; Superdex 200 10/300 GL in buffer A (20 mM Tris-HCl pH 8.0, 200 mM NaCl), 0.4 mL/min; settings: both partners purified
[6] = target: B1; assay: SEC-MALS; samples at 100 μM (Fig. 2c); Superdex 200 10/300 GL in buffer A (20 mM Tris-HCl pH 8.0, 200 mM NaCl), 0.4 mL/min; settings: both partners purified
[7] = target: B1; assay: SEC-MALS; samples at 10 μM (Fig. 2c); Superdex 200 10/300 GL in buffer A (20 mM Tris-HCl pH 8.0, 200 mM NaCl), 0.4 mL/min; settings: both partners purified

Q: Which results are given for B1?
A: Kd [1]: 3010 ± 100 nM; Kd [2]: 235.1 ± 0.8 nM

B2: StFliD_(45–467) (domain or fragment)
chain: TAYGTLKSALEKFQTANTALNKADLFKSTVASSTTEDLKVSTTAGAAAGTYKINVTQLAAAQSLATKTTFATTKEQLGDTSVTSRTIKIEQPGRKEPLEIKLDKGDTSMEAIRDAINDADSGIAASIVKVKENEFQLVLTANSGTDNTMKITVEGDTKLNDLLAYDSTTNTGNMQELVKAENAKLNVNGIDIERQSNTVTDAPQGITLTLTKKVTDATVTVTKDDTKAKEAIKSWVDAYNSLVDTFSSLTKYTAVEPGEEASDKNGALLGDSVVRTIQTGIRAQFANSGSNSAFKTMAEIGITQDGTSGKLKIDDDKLTKVLKDNTAAARELLVGDGKETGITTKIATEVKSYLADDGIIDNAQDNVNATLKSLTKQYLSVSNSIDETVARYKAQFTQLDTMMSKLNNTSSYLTQQFTAMNKS
notes: FliD of Salmonella Typhimurium, residues 45–467
Q: Does B2 bind [3]?
A: binds

B3: StFliD_(1–300) (domain or fragment)
chain: MASISSLGVGSNLPLDQLLTDLTKNEKGRLTPITKQQSANSAKLTAYGTLKSALEKFQTANTALNKADLFKSTVASSTTEDLKVSTTAGAAAGTYKINVTQLAAAQSLATKTTFATTKEQLGDTSVTSRTIKIEQPGRKEPLEIKLDKGDTSMEAIRDAINDADSGIAASIVKVKENEFQLVLTANSGTDNTMKITVEGDTKLNDLLAYDSTTNTGNMQELVKAENAKLNVNGIDIERQSNTVTDAPQGITLTLTKKVTDATVTVTKDDTKAKEAIKSWVDAYNSLVDTFSSLTKYTAVE
notes: FliD of Salmonella Typhimurium, residues 1–300; Dimer at 100 μM by SEC-MALS; source: cloned into pRSF-duet
Q: B3 was tested. Which “stoichiometry N” value [4] did it give?
A: 2

B4: StFliD_(401–467) (domain or fragment)
chain: DGIIDNAQDNVNATLKSLTKQYLSVSNSIDETVARYKAQFTQLDTMMSKLNNTSSYLTQQFTAMNKS
notes: FliD of Salmonella Typhimurium, residues 401–467; The eluate was cleaved by TEV protease; also called C-terminal helix of StFliD; source: E. coli BL21(DE3), co-expressed with StFliT 1–94, co-purified (glutathione-Sepharose, TEV, Hitrap Q, Superdex 200)
Q: B4 was tested. Which “stoichiometry N” value [5] did it give?
A: 1 StFliD per StFliT

Q: What does the source list for B5?
A: stoichiometry N [6]: 1 StFliD per StFliT (2:2); stoichiometry N [7]: 1 StFliD per StFliT
